Assay results: article PMC10756261 (Proceedings of the National Academy of Sciences of the …, 2023)

Target: T1, GST-RPA1a (Arabidopsis thaliana, UniProt Q9SKI4 1-640)
T1 sequence (looked up): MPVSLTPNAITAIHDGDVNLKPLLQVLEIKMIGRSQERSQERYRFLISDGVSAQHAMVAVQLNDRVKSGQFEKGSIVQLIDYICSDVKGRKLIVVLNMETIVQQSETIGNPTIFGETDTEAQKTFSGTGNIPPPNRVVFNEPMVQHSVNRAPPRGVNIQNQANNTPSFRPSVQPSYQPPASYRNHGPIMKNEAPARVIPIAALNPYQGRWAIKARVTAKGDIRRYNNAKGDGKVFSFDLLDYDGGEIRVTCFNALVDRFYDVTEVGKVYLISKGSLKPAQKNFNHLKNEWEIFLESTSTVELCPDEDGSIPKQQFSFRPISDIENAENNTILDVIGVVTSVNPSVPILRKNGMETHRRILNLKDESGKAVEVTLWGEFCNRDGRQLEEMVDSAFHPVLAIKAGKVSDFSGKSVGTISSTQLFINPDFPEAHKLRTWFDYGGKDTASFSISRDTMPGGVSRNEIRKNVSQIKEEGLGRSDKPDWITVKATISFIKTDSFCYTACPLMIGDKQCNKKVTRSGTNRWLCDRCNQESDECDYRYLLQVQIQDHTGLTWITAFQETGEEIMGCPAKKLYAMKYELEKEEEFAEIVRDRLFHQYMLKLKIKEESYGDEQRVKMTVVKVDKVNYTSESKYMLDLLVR
Test: pull-down

B1: His-Sumo-HEI10 (natural protein, Arabidopsis thaliana, UniProt F4HRI2 1-304, looked up)
chain: MRCNACWRDLEGRAISTTCGHLLCTEDASKILSNDGACPICDQVLSKSLMKPVDINPNEEWINMAMAGISPQILMKSAYRSVMFYIAQRDLEMQYKMNRVVAQCRQKCEGMQAKFSEKMEQVHTAYQKMGKRCQMMEQEVENLTKDKQELQEKFSEKSRQKRKLDEMYDQLRSEYESVKRTAIQPANNFYPRHQEPDFFSNPAVNMMENRETIRKDRSFFSPATPGPKDEIWPARQNSSNSGPFDISTDSPAIPSDLGNRRAGRGHPVYGGGGTANPQSTLRNLILSPIKRSQLSRSRPQLFTL
binding result: binds
